The record followed here is patent US12679878B2, “CRF2 receptor agonists and their use in therapy” (SANOFI, priority 2020, dated 2026).

Starred links: 1 amine or outer side, 2 acyl side, 3 side chain; linkers in the order of their positions; H or OH if unused. Non-standard residues stand in square brackets, D forms with d. Groups on a side chain read outwards from the residue. No end group written: not given here. *: point of attachment. γGlu = O=C(O)[C@H](CCC(=O)[*:2])N[*:1]; Palmitoyl = CCCCCCCCCCCCCCCC(=O)*

For the experiment, the target named is T1, anti-target CRF1R receptor (UniProt P34998 24-415, limits assumed).
T1 sequence (looked up): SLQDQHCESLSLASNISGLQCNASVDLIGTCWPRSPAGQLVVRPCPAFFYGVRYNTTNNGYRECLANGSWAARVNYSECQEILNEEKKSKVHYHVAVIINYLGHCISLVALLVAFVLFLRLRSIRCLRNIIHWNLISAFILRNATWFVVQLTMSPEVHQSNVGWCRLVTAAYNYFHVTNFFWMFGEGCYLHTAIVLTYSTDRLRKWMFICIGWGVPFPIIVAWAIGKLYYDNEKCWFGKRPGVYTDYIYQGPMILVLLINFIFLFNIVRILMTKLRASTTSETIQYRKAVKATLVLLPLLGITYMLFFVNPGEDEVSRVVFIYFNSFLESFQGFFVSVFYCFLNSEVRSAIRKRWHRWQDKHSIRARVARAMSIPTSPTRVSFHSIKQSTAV
The experiment is described as follows: cell-based or functional assay.

B1: peptide of SEQ ID NO: 6 (peptide)
peptide: IVLSLDVPIGLK([γGlu-Palmitoyl])QKLLKQQRQRKERQQAEKNARILARV-NH2
modifications: N-terminus assumed
SMILES: CCCCCCCCCCCCCCCC(=O)N[C@@H](CCC(=O)NCCCC[C@H](NC(=O)[C@H](CC(C)C)NC(=O)CNC(=O)[C@@H](NC(=O)[C@@H]1CCCN1C(=O)[C@@H](NC(=O)[C@H](CC(=O)O)NC(=O)[C@H](CC(C)C)NC(=O)[C@H](CO)NC(=O)[C@H](CC(C)C)NC(=O)[C@@H](NC(=O)[C@@H](N)[C@@H](C)CC)C(C)C)C(C)C)[C@@H](C)CC)C(=O)N[C@@H](CCC(N)=O)C(=O)N[C@@H](CCCCN)C(=O)N[C@@H](CC(C)C)C(=O)N[C@@H](CC(C)C)C(=O)N[C@@H](CCCCN)C(=O)N[C@@H](CCC(N)=O)C(=O)N[C@@H](CCC(N)=O)C(=O)N[C@@H](CCCNC(=N)N)C(=O)N[C@@H](CCC(N)=O)C(=O)N[C@@H](CCCNC(=N)N)C(=O)N[C@@H](CCCCN)C(=O)N[C@@H](CCC(=O)O)C(=O)N[C@@H](CCCNC(=N)N)C(=O)N[C@@H](CCC(N)=O)C(=O)N[C@@H](CCC(N)=O)C(=O)N[C@@H](C)C(=O)N[C@@H](CCC(=O)O)C(=O)N[C@@H](CCCCN)C(=O)N[C@@H](CC(N)=O)C(=O)N[C@@H](C)C(=O)N[C@@H](CCCNC(=N)N)C(=O)N[C@H](C(=O)N[C@@H](CC(C)C)C(=O)N[C@@H](C)C(=O)N[C@@H](CCCNC(=N)N)C(=O)N[C@H](C(N)=O)C(C)C)[C@@H](C)CC)C(=O)O
With B1, the “EC50[nM] 0% HSA (cAMP, CRF1R-overexpression CHO cells)” value (from here on “EC50[nM] 0% HSA”) came out at 830 nM and the “Emax (%) (cAMP, CRF1R-overexpression CHO cells)” value (from here on “Emax (%)”) is 47.2%.

B2: peptide of SEQ ID NO: 10 (peptide)
peptide: FTLSLDVPTKIK([γGlu-Palmitoyl])QKLLKQEKQKKQRQKAKTNKQILEQV-NH2
modifications: N-terminus assumed
SMILES: CCCCCCCCCCCCCCCC(=O)N[C@@H](CCC(=O)NCCCC[C@H](NC(=O)[C@@H](NC(=O)[C@H](CCCCN)NC(=O)[C@@H](NC(=O)[C@@H]1CCCN1C(=O)[C@@H](NC(=O)[C@H](CC(=O)O)NC(=O)[C@H](CC(C)C)NC(=O)[C@H](CO)NC(=O)[C@H](CC(C)C)NC(=O)[C@@H](NC(=O)[C@@H](N)Cc1ccccc1)[C@@H](C)O)C(C)C)[C@@H](C)O)[C@@H](C)CC)C(=O)N[C@@H](CCC(N)=O)C(=O)N[C@@H](CCCCN)C(=O)N[C@@H](CC(C)C)C(=O)N[C@@H](CC(C)C)C(=O)N[C@@H](CCCCN)C(=O)N[C@@H](CCC(N)=O)C(=O)N[C@@H](CCC(=O)O)C(=O)N[C@@H](CCCCN)C(=O)N[C@@H](CCC(N)=O)C(=O)N[C@@H](CCCCN)C(=O)N[C@@H](CCCCN)C(=O)N[C@@H](CCC(N)=O)C(=O)N[C@@H](CCCNC(=N)N)C(=O)N[C@@H](CCC(N)=O)C(=O)N[C@@H](CCCCN)C(=O)N[C@@H](C)C(=O)N[C@@H](CCCCN)C(=O)N[C@H](C(=O)N[C@@H](CC(N)=O)C(=O)N[C@@H](CCCCN)C(=O)N[C@@H](CCC(N)=O)C(=O)N[C@H](C(=O)N[C@@H](CC(C)C)C(=O)N[C@@H](CCC(=O)O)C(=O)N[C@@H](CCC(N)=O)C(=O)N[C@H](C(N)=O)C(C)C)[C@@H](C)CC)[C@@H](C)O)C(=O)O
As for B2, the “EC50[nM] 0% HSA” value is greater than 1000 nM and the “Emax (%)” value was 10.2%.

B3: peptide of SEQ ID NO: 9 (peptide)
peptide: FTLSLDVPTKIK([γGlu-Palmitoyl])QKLLKQEKQKKQRQKAKTAKQILEQV-NH2
modifications: N-terminus assumed
SMILES: CCCCCCCCCCCCCCCC(=O)N[C@@H](CCC(=O)NCCCC[C@H](NC(=O)[C@@H](NC(=O)[C@H](CCCCN)NC(=O)[C@@H](NC(=O)[C@@H]1CCCN1C(=O)[C@@H](NC(=O)[C@H](CC(=O)O)NC(=O)[C@H](CC(C)C)NC(=O)[C@H](CO)NC(=O)[C@H](CC(C)C)NC(=O)[C@@H](NC(=O)[C@@H](N)Cc1ccccc1)[C@@H](C)O)C(C)C)[C@@H](C)O)[C@@H](C)CC)C(=O)N[C@@H](CCC(N)=O)C(=O)N[C@@H](CCCCN)C(=O)N[C@@H](CC(C)C)C(=O)N[C@@H](CC(C)C)C(=O)N[C@@H](CCCCN)C(=O)N[C@@H](CCC(N)=O)C(=O)N[C@@H](CCC(=O)O)C(=O)N[C@@H](CCCCN)C(=O)N[C@@H](CCC(N)=O)C(=O)N[C@@H](CCCCN)C(=O)N[C@@H](CCCCN)C(=O)N[C@@H](CCC(N)=O)C(=O)N[C@@H](CCCNC(=N)N)C(=O)N[C@@H](CCC(N)=O)C(=O)N[C@@H](CCCCN)C(=O)N[C@@H](C)C(=O)N[C@@H](CCCCN)C(=O)N[C@H](C(=O)N[C@@H](C)C(=O)N[C@@H](CCCCN)C(=O)N[C@@H](CCC(N)=O)C(=O)N[C@H](C(=O)N[C@@H](CC(C)C)C(=O)N[C@@H](CCC(=O)O)C(=O)N[C@@H](CCC(N)=O)C(=O)N[C@H](C(N)=O)C(C)C)[C@@H](C)CC)[C@@H](C)O)C(=O)O
On to B3, for which the “EC50[nM] 0% HSA” value was greater than 1000 nM and the “Emax (%)” value stood at 14.9%.

B4: peptide of SEQ ID NO: 12 (peptide)
peptide: FTLSLDVPTKIK([γGlu-Palmitoyl])QKLLKQEKQRKQKQQAKTNAKILARV-NH2
modifications: N-terminus assumed
SMILES: CCCCCCCCCCCCCCCC(=O)N[C@@H](CCC(=O)NCCCC[C@H](NC(=O)[C@@H](NC(=O)[C@H](CCCCN)NC(=O)[C@@H](NC(=O)[C@@H]1CCCN1C(=O)[C@@H](NC(=O)[C@H](CC(=O)O)NC(=O)[C@H](CC(C)C)NC(=O)[C@H](CO)NC(=O)[C@H](CC(C)C)NC(=O)[C@@H](NC(=O)[C@@H](N)Cc1ccccc1)[C@@H](C)O)C(C)C)[C@@H](C)O)[C@@H](C)CC)C(=O)N[C@@H](CCC(N)=O)C(=O)N[C@@H](CCCCN)C(=O)N[C@@H](CC(C)C)C(=O)N[C@@H](CC(C)C)C(=O)N[C@@H](CCCCN)C(=O)N[C@@H](CCC(N)=O)C(=O)N[C@@H](CCC(=O)O)C(=O)N[C@@H](CCCCN)C(=O)N[C@@H](CCC(N)=O)C(=O)N[C@@H](CCCNC(=N)N)C(=O)N[C@@H](CCCCN)C(=O)N[C@@H](CCC(N)=O)C(=O)N[C@@H](CCCCN)C(=O)N[C@@H](CCC(N)=O)C(=O)N[C@@H](CCC(N)=O)C(=O)N[C@@H](C)C(=O)N[C@@H](CCCCN)C(=O)N[C@H](C(=O)N[C@@H](CC(N)=O)C(=O)N[C@@H](C)C(=O)N[C@@H](CCCCN)C(=O)N[C@H](C(=O)N[C@@H](CC(C)C)C(=O)N[C@@H](C)C(=O)N[C@@H](CCCNC(=N)N)C(=O)N[C@H](C(N)=O)C(C)C)[C@@H](C)CC)[C@@H](C)O)C(=O)O
In the case of B4, the “EC50[nM] 0% HSA” value is greater than 1000 nM and the “Emax (%)” value amounted to 41.8%.

With IVLSLD[dV]PTKLK([γGlu-Palmitoyl])QKLLKQERQRKEREQAEKNARILARV-NH2 (not fully specified; printed as IVLSLDvPTKLK*QKLLKQERQRKEREQAEKNARILARV-NH2) [peptide of SEQ ID NO: 7], the “EC50[nM] 0% HSA” value came out at 588 nM and the “Emax (%)” value was found to be 58.6%.

B5: peptide of SEQ ID NO: 14 (peptide)
peptide: FTLSLDVPTKIK([γGlu-Palmitoyl])QKLLKQEKQRKQKQKAKTNAKILARV-NH2
modifications: N-terminus assumed
SMILES: CCCCCCCCCCCCCCCC(=O)N[C@@H](CCC(=O)NCCCC[C@H](NC(=O)[C@@H](NC(=O)[C@H](CCCCN)NC(=O)[C@@H](NC(=O)[C@@H]1CCCN1C(=O)[C@@H](NC(=O)[C@H](CC(=O)O)NC(=O)[C@H](CC(C)C)NC(=O)[C@H](CO)NC(=O)[C@H](CC(C)C)NC(=O)[C@@H](NC(=O)[C@@H](N)Cc1ccccc1)[C@@H](C)O)C(C)C)[C@@H](C)O)[C@@H](C)CC)C(=O)N[C@@H](CCC(N)=O)C(=O)N[C@@H](CCCCN)C(=O)N[C@@H](CC(C)C)C(=O)N[C@@H](CC(C)C)C(=O)N[C@@H](CCCCN)C(=O)N[C@@H](CCC(N)=O)C(=O)N[C@@H](CCC(=O)O)C(=O)N[C@@H](CCCCN)C(=O)N[C@@H](CCC(N)=O)C(=O)N[C@@H](CCCNC(=N)N)C(=O)N[C@@H](CCCCN)C(=O)N[C@@H](CCC(N)=O)C(=O)N[C@@H](CCCCN)C(=O)N[C@@H](CCC(N)=O)C(=O)N[C@@H](CCCCN)C(=O)N[C@@H](C)C(=O)N[C@@H](CCCCN)C(=O)N[C@H](C(=O)N[C@@H](CC(N)=O)C(=O)N[C@@H](C)C(=O)N[C@@H](CCCCN)C(=O)N[C@H](C(=O)N[C@@H](CC(C)C)C(=O)N[C@@H](C)C(=O)N[C@@H](CCCNC(=N)N)C(=O)N[C@H](C(N)=O)C(C)C)[C@@H](C)CC)[C@@H](C)O)C(=O)O
For B5, the “EC50[nM] 0% HSA” value was greater than 1000 nM and the “Emax (%)” value stood at 14.1%.
